According to publication PMC10952593, “Synthetic cannabinoid receptor agonists are monoamine oxidase‐A selective inhibitors” (The Febs Journal, 2023):

Substrate: NCc1ccccc1
Test: purified protein
Assay type: biochemical, Homo sapiens
Conditions: 30 μM MAO-B [sic], 50 mM HEPES pH 7.5, 0.5% Triton X-100, 25 °C

B1: MAO-B (Homo sapiens) (protein)
chain: SNKCDVVVVGGGISGMAAAKLLHDSGLNVVVLEARDRVGGRTYTLRNQKVKYVDLGGSYVGPTQNRILRLAKELGLETYKVNEVERLIHHVKGKSYPFRGPFPPVWNPITYLDHNNFWRTMDDMGREIPSDAPWKAPLAEEWDNMTMKELLDKLCWTESAKQLATLFVNLCVTAETHEVSALWFLWYVKQCGGTTRIISTTNGGQERKFVGGSGQVSERIMDLLGDRVKLERPVIYIDQTRENVLVETLNHEMYEAKYVISAIPPTLGMKIHFNPPLPMMRNQMITRVPLGSVIKCIVYYKEPFWRKKDYCGTMIIDGEEAPVAYTLDDTKPEGNYAAIMGFILAHKARKLARLTKEERLKKLCELYAKVLGSLEALEPVHYEEKNWCEEQYSGGCYTTYFPPGILTQYGRVLRQPVDRIYFAGTETATHWSGYMEGAVEAGERAAREILHAMGKIPEDEIWQSEPESVDVPAQPITTTFLERHLPSVPGLLRLIGLTTIFSATALGFLAHKRGLLVRV
notes: FAD enzyme; PDB 2V5Z was only the docking model
In the case of B1, the Km is reported as 140 ± 30 µM.
